B1: mEC2-C: mouse IgG3 anti-TM4SF5 monoclonal antibody from hybridoma clone 2A10, recognizing hTM4SF5EC2-C cyclic peptide (antibody, V domains shown)
VH: QVQLEESGPGLVAPSQSLSIICTVSGFSLTSYGVTWVRQPPGKGLEWLGVIWSDGSTNYQSALISRLTISRDNSKSQAFLKLNSLQTDDTATYYCARPSNYYYFDYWGQGTTLTVSS
VL: DIVMTQSPSSLAVSAGERVTLSCKSSQSLFDRRTRKTYLAWYQQKPGQSPKLLISWASTRESGVPDRFTGSGSGTDFTLTISSVQAEDLAVYYCKQSYNLFTFGGGTKLEIK

Legend:
TM4SF5 = target: T1, TM4SF5 (Homo sapiens, UniProt O14894); conditions: in vitro and in vivo; cited from earlier work
T1 sequence (O14894 1-197): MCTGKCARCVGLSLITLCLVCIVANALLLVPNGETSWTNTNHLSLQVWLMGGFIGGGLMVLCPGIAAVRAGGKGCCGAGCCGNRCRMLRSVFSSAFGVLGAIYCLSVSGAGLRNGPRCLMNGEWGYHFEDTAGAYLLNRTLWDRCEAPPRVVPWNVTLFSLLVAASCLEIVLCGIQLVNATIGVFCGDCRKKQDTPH

[1] = target: T2, hTM4SF5EC2-C cyclic peptide (Homo sapiens, UniProt O14894, G133C); assay: SPR (surface plasmon resonance) analysis; format: binding; conditions: 25° C.
T2 construct: purchased Peptron, Co., Ltd; host or cells: chemical synthesis
T2 sequence (O14894 with tags, fused parts or gaps G133C): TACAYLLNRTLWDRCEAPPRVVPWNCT
Protocol: FIG. 6 represents purification and characterization of mouse anti-TM4SF5 monoclonal antibodies recognizing TM4SF5 cyclic peptides. (A) Hydrops abdominis was producted from BALB/c mice by injecting i.p. into the abdominal cavity with hybridoma clone (2A10 clone) derived from FIG. 5. Anti-TM4SF5 monoclonal antibody was purified using protein-A agarose column chromatography and the purified antibody was identified by SDS-PAGE and Coomassie blue staining. (B) The isotype was determined by obtaining titration curves using purified monoclonal antibodies. (C) A binding affinity of monoclonal antibody for cyclic peptide hTM4SF5EC2-C was determined by using ELISA. (D) A binding affinity of monoclonal antibody for cyclic peptide […] was determined by using Reichert Analytical Instruments SPR 7500DC (Reichert). […] (E) HEK 293F-EV (empty vector) and proteins from HEK 293F-TM4SF5 cells were separated by SDS-PAGE and analyzed by Western Blot using anti-TM4SF5 monoclonal antibody (mEC2-C), anti-Myc antibody or anti-β-actin antibody. HEK 293F-EV and proteins of HEK 293F-TM4SF5 cell were immunoprecipitated with mEC2-C and analyzed by Western blot using anti-Myc antibody. […]
The affinities of anti-hTM4SF5 monoclonal antibody (mEC2-C) and humanized anti-TM4SF5 antibody (hEC2-C-2) binding to hTM4SF5EC2-C cyclic peptide were measured at 25° C. using the Reichert SPR system. […]

HT-29 cells = format: in vivo, BALB/cAnNCri-nu/nu mice; conditions: 25 mg/kg tail vein twice a week; compared to PBS control
Protocol: Mouse tumor models were established by implanting HT-29 cells into BALB/cAnNCri-nu/nu mice. PBS or anti-TM4SF5 monoclonal antibody was injected into the mice when the tumor size reaches 5 mm in diameter and the tumor growth was monitored for 31 days (n=6 each). (A) Experimental schedule. (B) Macroscopic appearance of colon cancer tissue. (C) Tumor volume (width^2×length/2). (D) Tumor weight. (E) Weight.
Twelve BALB/cAnNCri-nu/nu mice were subcutaneously injected with 5×10^6 HT-29 cells containing 50% matrigel (BD biosciences) on the dorsal right flank. When the tumor diameter reached 5 mm, the mice were randomly sorted into two treatment groups (6 mice/each group) of PBS and anti-TM4SF5 monoclonal antibody (mEC2-C). Antibodies (25 mg/kg) were injected into the tail vein twice a week. During 30 days after injecting the cancer cell, the tumor diameter was measured per 3 or 4 day-interval, and the tumor volume was calculated according to an equation Width^2×length/2. When the tumor size is reached ±600 mm^3, BACB/cAnNCri-NCri-nu/nu mice were sacrificed, and the tumor weight was measured.

[2] = target: T3, hTM4SF5EC2-C cyclic peptide (Homo sapiens, UniProt O14894, G133C/V156C); assay: ELISA binding of monoclonal antibody to cyclic peptide
T3 construct: purchased Peptron, Co., Ltd; host or cells: chemical synthesis
T3 sequence (O14894 131-157 G133C/V156C): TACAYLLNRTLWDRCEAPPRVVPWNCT
Protocol: Mice were sacrificed before and 10 days after each administration to obtain serum. To determine the total IgG titer and amount, a 96-well immunoplate (Nalgen Nunc International) was coated with 5 μg/ml hTM4SF5EC2-C cyclic peptide and blocked with 0.05% PBST containing 1% BSA for two hours. After removal of blocking solution, 100 μl of the culture supernatant was added and incubated for 2 hours at room temperature, then washed with PBST and incubated for 2 hours with the detection antibody such as horseradish peroxidase (HRP)-bound an anti-IgG antibody. Colorimetric assays were developed with TMB substrate solutions and absorbance was measured at 450 nm using a Spectra Max 250 microplate reader.

[3] = target: T4, Myc-tagged recombinant TM4SF5 protein (Homo sapiens, UniProt O14894); assay: Western blot and immunoprecipitation on TM4SF5-overexpressing HEK 293F cells; format: binding; conditions: HEK 293F cells overexpressing TM4SF5 vs HEK 293F control
T4 construct: expressed in transfected cells
T4 sequence (O14894 1-197): T1 sequence (O14894 1-197)
Protocol: Human TM4SF5 cDNA was amplified by RT-PCR from Huh-7 mRNA using the following primer set: hTM4SF5 5′ primer, 5′-[…]-3′ (SEQ ID NO: 24), hTM4SF5 3′ primer, 5′-[…]-3′ (SEQ ID NO: 25). The cDNA fragment was cloned into the expression vector pcDNA-3.1/Myc-His(−)B (Invitrogen). HEK 293F cells (1×10^6 cells/ml) were transfected with 2.5 μg/ml hTM4SF5/pcDNA and 7.5 μg/ml polyethylenimine (PEI, Polysciences) for the production of stable cell lines expressing hTM4SF5, and the transfected cells were collected using 500 μg/ml G418 (Calbiochem) for 14 days. Expression of Myc-tagged hTM4SF5 was confirmed by Western blot analysis using anti-Myc-tag antibodies.
In order to analyze the specificity of anti-TM4SF5 monoclonal antibody and humanized anti-TM4SF5 antibody, TM4SF5-overexpressed cell lysates were separated on SDS-PAGE, and Western blot and immunoprecipitation assays were performed as described on Kwon S, Kim D, Rhee J W, Park J A, Kim D W, Kim D S, Lee Y, Kwon H J. BMC Biol. 2010; 8:23. In order to identify the expression of E-cadherin and β-catenin in humanized anti-TM4SF5 antibody-treated cells, cell lysates were analyzed with SDS-PAGE and Western blotting method as descried in Kwon S, Choi K C, Kim Y E, Ha Y W, Kim D, Park B K, Wu G, Kim D S, Lee Y, Kwon H J. Cancer Res. 2014; 74(14):3844-3856.

Molecule | HCC growth and metastasis (TM4SF5) | off rate (kd) [1] | progression of colon cancer (tumor volume and weight) (HT-29 cells) | binding to cyclic peptide hTM4SF5EC2-C by ELISA [2] | recognition of TM4SF5 protein by Western blot and immunoprecipitation [3]
Cc1ccc(S(=O)(=O)Nc2ccc(C(=O)/C=C/c3ccc(O)cc3)cc2)cc1 [TSAHC, 4′-(p-toluenesulfonyl-amido)-4-hydroxychalcone] | inhibited HCC growth and metastasis in vitro and in vivo | – | – | – | –
B1 | – | 10^−5 /sec | attenuated progression of colon cancer | specific binding | recognize Myc-tagged recombinant TM4SF5 protein
